Experimental data taken from publication PMC9871032 (2023).
Each block holds one molecule with its values, some of them ahead of it.

What was measured:
[1] = molecular target: His-tagged ectodomain of human IL-2Rα (human) (UniProt P01589); experiment: BLI; His-tagged IL-2Rα immobilised by amine coupling on AR2G biosensors; Octet RED96, 25 °C, D-PBS with 0.2% BSA and 0.05% Tween 20; two-fold dilutions (1.5-100 nM) of IL-2 and L72-FSY; dissociation 300 s; global 1:1 fit
[2] = molecular target: dimeric IL-2 receptor (Homo sapiens) (UniProt P14784); conditions: cited from earlier work
IL-2Rα (Homo sapiens) = IL-2Rα (Homo sapiens) (UniProt P01589); conditions: cited from earlier work
IL-2Rα (Homo sapiens), sequence (P01589 22-240): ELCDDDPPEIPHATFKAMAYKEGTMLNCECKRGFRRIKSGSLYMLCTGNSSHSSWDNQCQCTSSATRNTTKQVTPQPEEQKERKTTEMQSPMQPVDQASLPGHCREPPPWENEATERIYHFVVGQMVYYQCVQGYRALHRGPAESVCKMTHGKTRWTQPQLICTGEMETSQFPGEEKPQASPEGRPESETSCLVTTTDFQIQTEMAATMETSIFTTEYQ

[3] = molecular target: extracellular domain of IL-2Rβ (UniProt P14784); experiment: BLI; biosensors bearing the extracellular domain of IL-2Rβ; samples in a series of 3-fold dilutions
L72-FSY-IL-2 = L72-FSY-IL-2 (human, UniProt P60568 21-153, L72-FSY, fluorosulfate-L-tyrosine (FSY) at 72); experiment: BLI

Molecule: IL-2 (from UniProt P60568)
Kd [2]: 1 nM | Kd (IL-2Rα (Homo sapiens)): 10 nM

B1: extracellular domain of the β subunit of IL-2R (receptor)
chain: AVNGTSQFTCFYNSRANISCVWSQDGALQDTSCQVHAWPDRRRWNQTCELLPVSQASWACNLILGAPDSQKLTTVDIVTLRVLCREGVRWRVMAIQDFKPFENLRLMAPISLQVVHVETHRCNISWEISQASHYFERHLEFEARTLSPGHTWEEAPLLTLKQKQEWICLETLTPDTQYEFQVRVKPLQGEFTTWSPWSQPLAFRTKPAALGKDT
Kd (L72-FSY-IL-2): 70 nM

Next, values leading:

Kd [1]: 10.3 nM
Molecule: L72-FSY-IL-2 (human IL-2 with fluorosulfate-L-tyrosine at position 72) (from UniProt P60568 21-153) (ligand)

Kd [1]: 45.1 nM | Kd [3]: 743 nM
Molecule: N-terminally PEGylated L72-FSY-IL-2 (from UniProt P60568 21-153) (ligand)
